Results: US20140294817A1 (LEUKOSIGHT, published 2014)

Legend:
[1] = biological target: T1, Fcγ-receptor I (mice, UniProt P26151 25-404); experiment: flow cytometry saturation binding on HeLa cells expressing FcγRI; reference rabbit IgG
T1 construct: whole, on cells; HeLa cells transfected with an FcγRI plasmid, RFP-tagged; also called FcγRI; not shown: red fluorescent protein tag (RFP) attached to the intracellular portion
T1 sequence (looked up): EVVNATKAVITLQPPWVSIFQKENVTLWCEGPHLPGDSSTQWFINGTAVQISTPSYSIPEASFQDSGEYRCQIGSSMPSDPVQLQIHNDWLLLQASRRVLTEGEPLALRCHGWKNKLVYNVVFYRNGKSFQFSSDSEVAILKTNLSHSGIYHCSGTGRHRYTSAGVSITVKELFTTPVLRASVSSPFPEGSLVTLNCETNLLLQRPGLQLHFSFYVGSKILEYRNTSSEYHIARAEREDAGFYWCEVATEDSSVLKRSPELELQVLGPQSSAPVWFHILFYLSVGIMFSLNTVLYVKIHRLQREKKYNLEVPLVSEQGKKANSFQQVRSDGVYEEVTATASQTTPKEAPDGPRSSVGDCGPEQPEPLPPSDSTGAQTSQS
Excerpt: (§1) There are four Fc-gamma receptors (FcγRs) in mice including: Fcγ-receptor I, Fcγ-receptor III, Fcγ-receptor IV, and Fcγ-receptor IIb. The genes for each of the Fcγ-receptor I, Fcγ-receptor III, Fcγ-receptor IV, and Fcγ-receptor IIb were cloned into four separate plasmids. […] A red fluorescent protein tag (RFP) is attached to the intracellular portion of the FcγR (FIG. 56A). Thus, binding to the FcγR of a transfected HeLa cell will result in a signal transduction that causes the cells to fluoresce red, which may be measured by flow cytometry.
(§2) Polypeptides comprising a first and second Fc fragment of rabbit IgG in dimeric form and whole rabbit IgG were quantified by ELISA, using the whole rabbit IgG as the standards. HeLa cells that express FcγRI, HeLa cells that express FcγRIIb, HeLa cells that express FcγRIII, and HeLa cells that express FcγRIV as described in Example 13 were stained with 2-fold series diluted either with polypeptides comprising a first and second Fc fragment of rabbit IgG in dimeric form or whole rabbit IgG. The cells were then stained with Zenon Alexa Fluor 488 rabbit IgG labeling kits. […] The HeLa cells that express FcγRI, HeLa cells that express FcγRIIb, HeLa cells that express FcγRIII, and HeLa cells that express FcγRIV were gated by red fluorescence (RFP); and the mean fluorescence of Alexa Fluor was measured for the Saturation Binding Curves (FIGS. 61A-D).

[2] = biological target: T2, Fcγ-receptor IV (mice); experiment: flow cytometry saturation binding on HeLa cells expressing FcγRIV; reference rabbit IgG
T2 construct: whole, on cells; HeLa cells transfected with an FcγRIV plasmid, RFP-tagged; also called FcγRIV
T2 sequence (A0A0B4J1G0 whole entry, looked up): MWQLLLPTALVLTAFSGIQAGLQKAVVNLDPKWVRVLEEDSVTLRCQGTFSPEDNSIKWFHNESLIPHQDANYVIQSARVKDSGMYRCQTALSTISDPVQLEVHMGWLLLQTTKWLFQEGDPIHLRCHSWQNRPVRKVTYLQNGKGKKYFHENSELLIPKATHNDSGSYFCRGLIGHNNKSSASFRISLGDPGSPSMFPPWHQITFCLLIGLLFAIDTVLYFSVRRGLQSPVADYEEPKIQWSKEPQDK
Excerpt: as §1, §2

[3] = biological target: T3, Fcγ-receptor III (mice, UniProt P08508 31-261); experiment: flow cytometry saturation binding on HeLa cells expressing FcγRIII; reference rabbit IgG
T3 construct: whole, on cells; HeLa cells transfected with an FcγRIII plasmid, RFP-tagged; also called FcγRIII; not shown: red fluorescent protein tag (RFP) attached to the intracellular portion
T3 sequence (looked up): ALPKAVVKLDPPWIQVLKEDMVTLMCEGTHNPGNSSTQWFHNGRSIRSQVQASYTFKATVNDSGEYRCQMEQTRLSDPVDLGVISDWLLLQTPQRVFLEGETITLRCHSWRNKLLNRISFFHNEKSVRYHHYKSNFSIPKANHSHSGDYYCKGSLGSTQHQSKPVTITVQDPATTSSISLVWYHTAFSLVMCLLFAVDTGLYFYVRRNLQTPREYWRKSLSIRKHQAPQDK
Excerpt: as §1, §2

[4] = biological target: T4, Fcγ-receptor IIb (mice, UniProt P08101 30-330); experiment: flow cytometry saturation binding on HeLa cells expressing FcγRIIb; reference rabbit IgG
T4 construct: whole, on cells; HeLa cells transfected with an FcγRIIb plasmid, RFP-tagged; also called FcγRIIb; not shown: red fluorescent protein tag (RFP) attached to the intracellular portion
T4 sequence (looked up): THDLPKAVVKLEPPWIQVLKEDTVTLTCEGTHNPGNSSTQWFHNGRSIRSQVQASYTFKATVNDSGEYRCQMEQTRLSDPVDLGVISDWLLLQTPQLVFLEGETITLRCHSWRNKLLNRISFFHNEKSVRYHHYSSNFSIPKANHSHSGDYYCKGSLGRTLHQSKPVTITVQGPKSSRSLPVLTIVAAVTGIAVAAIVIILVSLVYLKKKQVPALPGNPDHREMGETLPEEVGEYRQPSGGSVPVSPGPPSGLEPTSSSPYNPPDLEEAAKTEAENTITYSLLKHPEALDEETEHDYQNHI
Excerpt: as §1, §2

[5] = biological target: T1, Fcγ-receptor I; experiment: flow cytometry saturation binding on HeLa cells expressing RFP-tagged FcγRI (FIG. 61A, left panel)
Excerpt: as §1, §2

[6] = biological target: T2, Fcγ-receptor IV; experiment: flow cytometry saturation binding on HeLa cells expressing RFP-tagged FcγRIV (FIG. 61D, left panel)
Excerpt: as §1, §2

[7] = biological target: T3, Fcγ-receptor III; experiment: flow cytometry saturation binding on HeLa cells expressing RFP-tagged FcγRIII (FIG. 61C, left panel)
Excerpt: as §1, §2

[8] = biological target: T4, Fcγ-receptor IIb; experiment: flow cytometry saturation binding on HeLa cells expressing RFP-tagged FcγRIIb (FIG. 61B, left panel)
Excerpt: as §1, §2

fold enhancement of binding against rabbit IgG [1]: ≥ 57.5 fold | fold enhancement of binding against rabbit IgG [2]: ≥ 191 fold | fold enhancement of binding against rabbit IgG [3]: ≥ 223 fold | fold enhancement of binding against rabbit IgG [4]: ≥ 61.7 fold | Kd [5]: ≤ 3.5 nM | Kd [6]: ≤ 6.3 nM | Kd [7]: ≤ 10.4 nM | Kd [8]: ≤ 9.8 nM
B1: polypeptide comprising a first and second Fc fragment of rabbit IgG in dimeric form (Fc fusion)
chain: GGSHHHHHHGMASMTGGQQMGRDLYDDDDKAPSTCSKPTCPPPELLGGPSVFIFPPKPKDTLMISRTPEVTCVVVDVSQDDPEVQFTWYINNEQVRTARPPLREQQFNSTIRVVSTLPIAHQDWLRGKEFKCKVHNKALPAPIEKTISKARGQPLEPKVYTMGPPREELSSRSVSLTCMINGFYPSDISVEWEKNGKAEDNYKTTPAVLDSDGSYFLYSKLSVPTSEWQRGDVFTCSVMHEALHNHYTQKSISRSPGKDIVRSSKPTCPPPELLGGPSVFIFPPKPKDTLMISRTPEVTCVVVDVSQDDPEVQFTWYINNEQVRTARPPLREQQFNSTIRVVSTLPIAHQDWLRGKEFKCKVHNKALPAPIEKTISKARGQPLEPKVYTMGPPREELSSRSVSLTCMINGFYPSDISVEWEKNGKAEDNYKTTPAVLDSDGSYFLYSKLSVPTSEWQRGDVFTCSVMHEALHNHYTQKSISRSPGK
notes: The supernatants hold monomeric and dimeric forms; also called dimeric polypeptides; polypeptides in dimeric form
